Among the data in article PMC9482650, “Quantitative fragmentomics allow affinity mapping of interactomes” (Nature Communications, 2022) are pKd values, retold here.

Among the targets are MAGIX, Q9H6Y5; PTPN13_2, Q12923; PDZD9, Q8IXQ8; MAGI3_6, Q5TCQ9; CNKSR3, Q6P9H4; LIMK1, P53667.
Holding throughout (test): holdup assay
Holding throughout (set-up): key: below the threshold = too weak to quantify, mostly under pKd 3.1 to 4
Holding throughout (details): plain residues with an end cap or a label only (N-terminal biotin on a linker: ttds)

A further test concerns the target T1, APBA3_2, O96018.
T1 sequence (O96018 480-570, limits assumed, looked up): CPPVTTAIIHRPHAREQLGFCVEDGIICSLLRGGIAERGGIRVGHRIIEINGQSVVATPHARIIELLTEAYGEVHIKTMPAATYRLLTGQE

Another test addresses T2, PTPN13_5, Q12923.
T2 sequence (Q12923 1877-1975, limits assumed, looked up): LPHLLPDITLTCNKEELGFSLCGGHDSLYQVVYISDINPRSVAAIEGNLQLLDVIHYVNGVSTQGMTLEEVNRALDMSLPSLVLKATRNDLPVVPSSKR

The next test has as its target T3, PDZD2_3, O15018.
T3 sequence (O15018 581-682, limits assumed, looked up): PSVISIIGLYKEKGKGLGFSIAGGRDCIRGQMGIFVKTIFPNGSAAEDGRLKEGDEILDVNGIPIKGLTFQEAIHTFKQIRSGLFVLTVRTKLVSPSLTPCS

A further test addresses T4, NHERF3_2, Q5T2W1.
T4 sequence (Q5T2W1 129-225, limits assumed, looked up): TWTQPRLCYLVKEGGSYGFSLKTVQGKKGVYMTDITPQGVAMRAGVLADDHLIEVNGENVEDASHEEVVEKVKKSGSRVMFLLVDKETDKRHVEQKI

The next test has as its target T5, NHERF1_1, O14745.
T5 sequence (O14745 9-104, limits assumed, looked up): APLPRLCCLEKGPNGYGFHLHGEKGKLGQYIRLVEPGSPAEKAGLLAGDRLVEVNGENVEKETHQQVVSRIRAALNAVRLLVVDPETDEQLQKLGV

Another test deals with T6, DVL1, O14640.
T6 sequence (O14640 246-333, limits assumed, looked up): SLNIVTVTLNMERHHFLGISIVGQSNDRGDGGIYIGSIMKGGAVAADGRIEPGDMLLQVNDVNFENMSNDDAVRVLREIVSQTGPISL

Another test concerns the target T7, SHROOM2, Q13796.
T7 sequence (Q13796 21-118, limits assumed, looked up): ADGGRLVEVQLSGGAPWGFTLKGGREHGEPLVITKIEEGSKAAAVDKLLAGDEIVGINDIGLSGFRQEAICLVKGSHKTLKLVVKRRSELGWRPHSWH

The target in another test is T8, PDLIM3, Q53GG5.
T8 sequence (Q53GG5 1-94, limits assumed, looked up): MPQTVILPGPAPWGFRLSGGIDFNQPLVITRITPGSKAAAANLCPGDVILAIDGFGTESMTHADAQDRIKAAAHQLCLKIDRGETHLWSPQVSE

The next test deals with T9, SHROOM4, Q9ULL8.
T9 sequence (Q9ULL8 5-102, limits assumed, looked up): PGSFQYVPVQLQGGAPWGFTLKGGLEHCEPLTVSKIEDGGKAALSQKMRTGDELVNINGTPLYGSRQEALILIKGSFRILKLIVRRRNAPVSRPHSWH

The next test has as its target T10, PDZD2_5, O15018.
T10 sequence (O15018 2617-2716, limits assumed, looked up): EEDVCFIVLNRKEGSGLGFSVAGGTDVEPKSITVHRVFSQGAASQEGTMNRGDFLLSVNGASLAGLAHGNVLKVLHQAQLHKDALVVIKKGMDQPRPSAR

The target of a further test is T11, PDZD2_6, O15018.
T11 sequence (O15018 2745-2839, limits assumed, looked up): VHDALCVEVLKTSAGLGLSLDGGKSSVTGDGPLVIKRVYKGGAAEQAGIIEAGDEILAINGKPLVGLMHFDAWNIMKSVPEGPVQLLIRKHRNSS

A further test deals with T12, USH1C_2, Q9Y6N9.
T12 sequence (Q9Y6N9 206-303, limits assumed, looked up): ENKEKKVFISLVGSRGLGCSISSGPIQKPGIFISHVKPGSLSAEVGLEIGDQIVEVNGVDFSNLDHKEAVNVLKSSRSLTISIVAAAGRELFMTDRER

In a further test the target is T13, TJP3_1, O95049.
T13 sequence (O95049 6-103, limits assumed, looked up): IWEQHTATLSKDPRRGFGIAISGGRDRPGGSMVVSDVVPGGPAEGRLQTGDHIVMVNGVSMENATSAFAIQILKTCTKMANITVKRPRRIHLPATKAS

The target in the next test is T14, PTPN13_4, Q12923.
T14 sequence (Q12923 1783-1878, limits assumed, looked up): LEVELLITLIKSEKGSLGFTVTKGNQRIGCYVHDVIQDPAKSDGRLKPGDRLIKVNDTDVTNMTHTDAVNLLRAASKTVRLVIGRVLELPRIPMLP

The next test deals with T15, SIPA1L3, O60292.
T15 sequence (O60292 961-1052, limits assumed, looked up): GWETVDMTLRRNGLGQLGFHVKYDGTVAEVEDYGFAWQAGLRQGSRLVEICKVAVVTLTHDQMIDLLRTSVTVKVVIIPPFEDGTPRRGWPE

Usually pKd stands for the negative decadic logarithm of the Kd, by convention in mol/L.

CNKSR3, Q6P9H4, sequence (Q6P9H4 203-303): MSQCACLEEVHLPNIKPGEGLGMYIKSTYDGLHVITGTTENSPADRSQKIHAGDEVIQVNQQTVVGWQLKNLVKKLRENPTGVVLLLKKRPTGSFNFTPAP
PTPN13_2, Q12923, sequence (Q12923 1363-1462): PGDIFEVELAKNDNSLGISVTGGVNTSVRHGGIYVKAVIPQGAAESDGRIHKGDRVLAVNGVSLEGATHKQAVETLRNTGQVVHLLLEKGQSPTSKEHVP
LIMK1, P53667, sequence (P53667 155-268): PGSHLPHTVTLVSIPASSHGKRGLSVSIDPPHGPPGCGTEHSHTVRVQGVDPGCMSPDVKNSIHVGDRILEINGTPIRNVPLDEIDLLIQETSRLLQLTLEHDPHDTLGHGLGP
PDZD9, Q8IXQ8, sequence (Q8IXQ8 23-120): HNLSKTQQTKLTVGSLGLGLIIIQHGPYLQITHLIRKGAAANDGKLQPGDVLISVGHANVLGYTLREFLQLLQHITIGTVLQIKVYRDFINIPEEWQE
MAGIX, Q9H6Y5, sequence (Q9H6Y5 118-211): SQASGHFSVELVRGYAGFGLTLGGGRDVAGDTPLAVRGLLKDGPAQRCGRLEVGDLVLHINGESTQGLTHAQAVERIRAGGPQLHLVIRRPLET
MAGI3_6, Q5TCQ9, sequence (Q5TCQ9 1014-1103): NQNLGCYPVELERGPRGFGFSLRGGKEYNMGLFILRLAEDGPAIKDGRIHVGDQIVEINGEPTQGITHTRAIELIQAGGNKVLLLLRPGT

For the molecule QSARYRDTEL [TJP2, Q9UDY2], the pKd entry with APBA3_2, O96018 is “below the threshold”; with MAGIX, Q9H6Y5, “below the threshold”; in the test with PTPN13_5, Q12923, “below the threshold”; in the test with PDZD2_3, O15018, “below the threshold”; in the test with NHERF3_2, Q5T2W1 it was “below the threshold”; in the test with PTPN13_2, Q12923, “below the threshold”. In addition, the pKd entry is reported as “below the threshold” in the test with NHERF1_1, O14745; “below the threshold” in the test with DVL1, O14640; “below the threshold” with SHROOM2, Q13796; “below the threshold” in the test with PDLIM3, Q53GG5; “below the threshold” with SHROOM4, Q9ULL8; “below the threshold” in the test with PDZD2_5, O15018. Further, the pKd entry was “below the threshold” with PDZD9, Q8IXQ8; 4.72 with MAGI3_6, Q5TCQ9; “below the threshold” in the test with PDZD2_6, O15018; “below the threshold” in the test with CNKSR3, Q6P9H4; “below the threshold” with USH1C_2, Q9Y6N9; “below the threshold” with TJP3_1, O95049. Further, the negative logarithm of the Kd (pKd) result is reported as “below the threshold” in the test with PTPN13_4, Q12923; “below the threshold” in the test with SIPA1L3, O60292; “below the threshold” in the test with LIMK1, P53667.

Turning to STLTIFETAL [ABCC4, O15439], the pKd result was “below the threshold” with APBA3_2, O96018; “below the threshold” in the test with MAGIX, Q9H6Y5; “below the threshold” in the test with PTPN13_5, Q12923; 4.32 in the test with PDZD2_3, O15018; 4.06 in the test with NHERF3_2, Q5T2W1; “below the threshold” in the test with PTPN13_2, Q12923. Also, the pKd with NHERF1_1, O14745 is 5.36; in the test with DVL1, O14640, “below the threshold”; with SHROOM2, Q13796, 4.44; in the test with PDLIM3, Q53GG5 it was 4.11; with SHROOM4, Q9ULL8 it was “below the threshold”; with PDZD2_5, O15018, “below the threshold”. For the same molecule, the pKd result in the test with PDZD9, Q8IXQ8 was “below the threshold”; with MAGI3_6, Q5TCQ9, 4.21; with PDZD2_6, O15018, “below the threshold”; in the test with CNKSR3, Q6P9H4, “below the threshold”; with USH1C_2, Q9Y6N9, “below the threshold”; in the test with TJP3_1, O95049, “below the threshold”. Besides, the pKd entry in the test with PTPN13_4, Q12923 was “below the threshold”; in the test with SIPA1L3, O60292, “below the threshold”; in the test with LIMK1, P53667, 4.24.
